The values below come from patent US20050267061.

The term Kd denotes the equilibrium constant for the complex coming apart. Lower therefore signals higher affinity.

Regarding “ATGGACGGG (double strand) [BVO 13A / MX1E target]”, the Kd is 3400 pM in the data set on MX1E (synthetic) and < 20 pM with BVO 13A (synthetic).

As for “GAGGCTTGG (double strand) [VOP 29A-3 target]”, in the data set on VOP 29A-3 (synthetic), the equilibrium dissociation constant (Kd) was < 20 pM.

Regarding “GCCGGGGAG (double strand) [USX 3A target]”, the Kd in the data set on USX 3A (synthetic) turned out to be 60 pM.

Take “GCTGGAGCA (double strand) [VOP 35A-10 target]”: the Kd with VOP 35A-10 (synthetic) is < 20 pM.

For “GCTGGGGGC (double strand) [VOP 30A-4 target]”, the Kd in the data set on VOP 30A-4 (synthetic) was < 20 pM.

On to “GGDTGGGGG (double strand) [HP38 4A target]”, for which the Kd in the data set on HP38 4A (synthetic) turned out to be 750 pM.

On to “GGGGAGGAT (double strand) [VEGF 1B target]”, for which the Kd with VEGF 1B (synthetic) was found to be 2000 pM.

As for “GGGGGCGCT (double strand) [VOP 28A-2 target]”, the dissociation constant Kd in the data set on VOP 28A-2 (synthetic) was < 20 pM.

As to “GGGGGTGAC (double strand) [VOP 32 target]”, the Kd in the data set on VOP 32B-7 (synthetic) and in the data set with VOP 32A-6 (synthetic) was < 20 pM each time.

As for “TGGGCAGAC (double strand) [HUM 19A target]”, the equilibrium dissociation constant (Kd) with HUM 19A (synthetic) stood at 20 pM.

In the data set on MTS 5A (synthetic), “TGGGGGTGG (double strand) [MTS 5A target]” displayed a dissociation constant (Kd) of 70 pM.
